From patent publication US12286661B2, “Methods for making high intensity sweeteners” (Firmenich Incorporated, priority 2018, dated 2025) come the findings set out here.

To fix the notation:
B1: SEQ ID NO. 1050/1051: glycosyltransferase (DNA/protein SEQ ID NO) producing mogroside I from mogrol (protein, listed as Bacillus licheniformis)
chain: MRHKHIAIFNIPAHGHINPTLALTASLVKRGYRVTYPVTDEFVKAVEETGAEPLNYRSTLNIDPQQIRELMKNKKDMSQAPLMFIKEMEEVLPQLEALYENDKPDLILFDFMAMAGKLLAEKFGIEAVRLCSTYAQNEHFTFRSISEEFKIELTPEQEDALKNSNLPSFNFEDMFEPAKLNIVFMPRAFQPYGETFDERFSFVGPSLAKRKFQEKETPIISDSGRPVMLISLGTAFNAWPEFYHMCIEAFRDTKWQVIMAVGTTIDPESFDDIPENFSIHQRVPQLEILKKAELFITHGGMNSTMEGLNAGVPLVAVPQMPEQEITARRVEELGLGKHLQPEDTTAASLREAVSQTDGDPHVLKRIQDMQKHIKQAGGAEKAADEIEAFLAPAGVK
B2: SEQ ID NO. 1064/1065: glycosyltransferase (DNA/protein SEQ ID NO) producing mogroside I from mogrol (protein, listed as Barbarea vulgaris)
chain: MASAKLHQFHPSLHFVLFPFMAQGHMIPMIDIARLLAQRGVTITIVTTLHNSARFRNVLSRAIESGLPINLVHVKFPYQEAGLPEGQENIDSLDSKELTVPFFKAVNMLEEPVMKLMEEMKPRPSCLISDLCLPYTSKIAKKFNIPKIVFHGMGCFCLLCMHVLRRNLEILQNLKSDKEYFWIPNFPDRVEFTKPQVPVRINASGDWKVFLDEMVKAEETSYGVIVNTFQELEPAYVKDFQEARAGKVWSIGPVSLCNKIEADKAERGNKAAIDQDECLKWLDSKEGGSVLYVCLGSICNLPLVQLIELGLGLEESQRPFIWVIRGWEKYNELSEWISESGFEERVKDRGLLIRGWAPQVLILSHPSVGGFLTHCGWNSTLEGITSGVPLLTLPLFGDQFCNQKLIVQVLKVGVSAGVEEVMGWGEEEKIGVLVDKERVKKTVEEVMGESDDAKERRRRVKELGKLAHKAVEEGGSSHSNITLFLQDMCQLQSVGIY
B3: SEQ ID NO. 1066/1067: glycosyltransferase (DNA/protein SEQ ID NO) producing mogroside I from mogrol (protein, listed as Barbarea vulgaris)
chain: MASITNHKSDPLHFVLFPFMAQGHMIPMVDIARLLAQRGLTITIVTTPHNASRFKNVLNRAIESGLPINILHVKLPYQEVGLPEGLENIDCFDSMEHMIPFFKGVNMVEESVQKLFEEMSPRPSCIISDFCLPYTSKVAKKFNIPKILFHGMCCLCLLCMHVLRKNPKILENLKSDKEHFVVPYFPDKIELTRPQVPMDTYVPGELKEFMEDLVEADKTSYGVIVNTFQELEPAYVKDYKETRSGKAWSVGPVALCNKARIDKAERGNKSDIDQDECLKWLDSKEERSVLYVCLGSICNLPLAQLKELGLGLEESTRPFIWVIRGWDKNKQLVEWFSESGFEERIKDRGLLIKGWSPQMLILSHQSVGGFLTHCGWNSTLEGITAGLPLLTWPLFADQFCNEKLVVQVLNSGVRAGVEQPMKWGEEEKIGVLVDKEGVKKAVEELMGESDEANERRRRAKELGELAHKAVEEGGSSHSNITFLLQDIMQLAQPITEPSFLVQSWHYKKALLINLLQRTGHYQSK
B4: SEQ ID NO. 1070/1071: glycosyltransferase (DNA/protein SEQ ID NO) producing mogroside I from mogrol (protein, listed as Barbarea vulgaris)
chain: MVSEITHKSYPLHFVLFPFMAQGHMIPMVDIARLLAQRGVKITIVTTPHNAARFENVLNRAIESGLPISIVQVKLPSQEAGLPEGNETFDSLVSMELLVPFFKSVNMLEEPVQKLFEEMSPQPSCIISDFCLPYTSKIAKKFNIPKILFHGMCCFCLLCMHVLRKNHEIVENLKSDKEHFVVPYFPDRVEFTRPQVPVATYVPGDWHEITGDMVEADKTSYGVIVNTCQELEPAYANDYKEARSGKAWTIGPVSLCNKVGADKAERGNKADIDQDECLKWLNSKEEGSVLYVCLGSICNLPLSQLKELGLGLEESQRPFIWVIRGWEKNKELLEWFSESGFEERIKDRGLLIKGWAPQMLILSHHSVGGFLTHCGWNSTLEGLTAGLPLLTWPLFADQFCNEKLAVQVLKAGVSAGVDQPMKWGEEEKIGVLVDKEGVKKAVEELMGESDDAKEIRRRAKELGELAHKAVEEGGSSHSNITSLLEDIMQLAQSNN
B5: SEQ ID NO. 1058/1059: glycosyltransferase (DNA/protein SEQ ID NO) producing mogroside I from mogrol (protein, listed as Barbarea vulgaris)
chain: MASETTHQFHSPLHFVLFPFMAQGHMIPMVDIARILAQRGVTITIVTTPHNAARFKNVLSRAIQSGLPINLVQAKFPSQESGSLEGHENLDLLDSLGASLTFFKATNMFEKPVEKLLKEIQPRPSCIIGDMCLPYTNRIAKNLGIPKIIFHGMCCFNLLCMHIMRQNYEFLETIDSEKEYFPIPNFPERAEFTKSQLPMITYAGEFKEFLDEVTEGDNTSYGVIVNTFEELEPAYVRDYKKVKAGKVWSIGPVSLCNKVGEDKAERGNKAAIDQDECIKWLDSKEEGSVLYVCLGSICNLPLSQLKELGLGLEESQRPFIWVIRGWEKYNELAEWISESGFKERIKERGLLIRGWSPQMLILSHPAVGGFLTHCGWNSTLEGITSGVPLLTWPLFGDQFCNEKLVVQVLKVGVRSGVEESMKWGQEENIGVLVDKEGVKKAVEEVMGESDDAKERRRRVKELGQLAHKAVEEGGSSHSNITSLLQDIRQLQSKK
B6: SEQ ID NO. 1060/1061: glycosyltransferase (DNA/protein SEQ ID NO) producing mogroside I from mogrol (protein, listed as Barbarea vulgaris)
chain: MASESCHHSHCPLHFVLFPFMAQGHMIPMVDIARLLALRGATITIVTTPHNATRFNNLLSRAIESDLSINIVHVNFPYQEAGLSEGQENVDLLESMGLMVPFLKAVNMLEEPVMKLMEEMKPRPSCLISDFCLHYTSKITKKFNIPKIVFHGMGCFCLLCMHVLRRNIEILKNLKSDKEYFLVPSFPDIVEFTKPQVPVETNASGDWKEFLEAMVEAEDTSYGVIVNTFQELEPAYVKDYKEARAGKVWSIGPVSLCNKIEADKAERGNKAAIDQEECLKWLDSKEEGSVLYVCLGSICNLPLAQLKELGIGLEESQRPFIWVIRGWEKYNELSEWMLESGFEERVKDRGLLIKGWSPQMLVLSHPSVGGFLTHCGWNSTLEGITSGVPLLTWPLFADQFCNEKLVVQVLKVGVRAGVEDPMSWGEEEKVGVLLDKEGVKKAVEELMGESDDAKERRKRVKELGELAHKAVEEGGSSHSNITLFLQDISQYKSVGTF
B7: SEQ ID NO. 1062/1063: glycosyltransferase (DNA/protein SEQ ID NO) producing mogroside I from mogrol (protein, listed as Barbarea vulgaris)
chain: MASITNHKSDPLHFVLFPFMAQGHMIPMVDIARLLAQRGLTITIVTTPHNASRFKNVLNRAIESGLPINILHVKLPYQEVGLPEGLENIDCFDSMEHMIPFFKGVNMVEESVQKLFEEMSPRPSCIISDFCLPYTSKVAKKFNIPKILFHGMCCLCLLCMHVLRKNPKILENLKSDKEHFVVPYFPDKIELTRPQVPMDTYVPGELKEFMEDLVEADKTSYGVIVNTFQELEPAYVKDYKETRSGKAWSVGPVALCNKARIDKAERGNKSDIDQDECLKWLDSKEERSVLYVCLGSICNLPLAQLKELGLGLEESTRPFIWVIRGWDKNKQLVEWFSESGFEERIKDRGLLIKGWSPQMLILSHQSVGGFLTHCGWNSTLEGITAGLPLLTWPLFADQFCNEKLVVQVLNSGVRAGVEQPMKWGEEEKIGVLVDKEGVKKAVEELMGESDEANERRRRAKELGELAHKAVEEGGSSHSNITFLLQDIMQLAQSNN
B8: SEQ ID NO. 1068/1069: glycosyltransferase (DNA/protein SEQ ID NO) producing mogroside I from mogrol (protein, listed as Barbarea vulgaris)
chain: MVSEITHKSYPLHFVLFPFMAQGHMIPMVDIARLLAQRGVKITIVTTPHNAARFKNVLSRAIESGLPISIVQVKLPSQEAGLPEGNETLDSLVSMELMIHFLKAVNMLEEPVQKLFEEMSPQPSCIISDFCLPYTSKIAKKFNIPKILFHGMCCFCLLCMHILRKNREIVENLKSDKEHFVVPYFPDRVEFTRPQVPVATYVPGDWHEITEDMVEADKTSYGVIVNTYQELEPAYANDYKEARSGKAWTIGPVSLCNKVGADKAERGNKADIDQDECLKWLNSKEEGSVLYVCLGSICNLPLSQLKELGLGLEESQRPFIWVIRGWEKNKELHEWFSESGFEERIKDRGLLIKGWAPQMLILSHHSVGGFLTHCGWNSTLEGLTAGLPLLTWPLFADQFCNEKLAVQVLKAGVSAGVDQPMKWGEEEKIGVLVDKEGVKKAVEELMGESDDAKEIRRRAKELGELAHKAVEEGGSSHSNITSLLEDIMQLAQSNN

The test has as its system mogrol. Briefly: Mogroside IA and/or IE production from mogrol by glycosyltransferases expressed in S. cerevisiae, LCMS. The settings on record: 10 μM mogrol, 2-4 days at 30° C.; identified by LCMS. Type of test: cell-based. The text has this:
DNA was obtained through gene synthesis either through Genescript, IDT, or Genewiz. For some of the cucurbitadienol synthases, cDNA or genomic DNA was obtained through 10-60 day old seedlings followed by PCR amplification using specific and degenerate primers. DNA was cloned through standard molecular biology techniques or through yeast gap repair cloning (Joska et al., 2014) into one of the following overexpression vectors: pESC-Ura, pESC-His, or pESC-LEU. Gene expression was regulated by one of the following promoters; Gall, Gal10, Tef1, or GDS. Yeast transformation was performed using Zymo Yeast Transformation Kit II. Yeast strains were grown in standard media (YPD or SC) containing the appropriate selection with 2% glucose or 2% galactose for induction of heterologous genes. Yeast strains were grown in shake flask or 96 well plates at 30° ° C., 140-250 rpm. When indicated, lanosterol synthase inhibitor, Ro 48-8071 (Cayman Chemicals) was added (50 ug/ml). Yeast samples producing mogrol precursors, mogrol and mogrosides were processed through one of the following: • Cucurbitadienol and 11-OH Cucurbitadienol: Samples cell pellets were lysed (Yeast Buster) followed by ethyl acetate extraction, drying, and resuspension in methanol. • ·Mogrol and Mogrosides: Samples cell pellets were lysed in 50% ETOH, incubated at 80° C. for 30 min, filtered, dried and resuspended in MeOH for LCMS screening.
For analyzing Mogroside IIIE & Compound 1, the LCMS method included the use of Fluoro-phenyl 2.1×100 mm column, gradient 15 to 30% B for 6 minutes, at flow rate of 0.55 ml/min. For analyzing yeast production of mogroside I during enzyme screening, the LCMS method used a Phenomenex Kinetex Polar C18, 4.6×100 mm, 2.6 μm column, and a gradient of 25% to 55% B over 3 minutes, and 100% B at 3.5 minutes with a flow rate of 1.5 ml/min. Detection by ESI source negative mode single ion monitoring of 683.4 for mogroside I and 799.4 for mogroside II.
Various glycosyltransferase proteins were expressed in S. cerevisiae grown in the presence of 10 μM mogrol for 2-4 days at 30° C., 140-250 rpm in either shake flask or 96 well plates. Glycosyltransferases leading to production of Mogroside IA (glycosylation of C24-OH position) and/or Mogroside IE (glycosylation of C3-OH position) are provided in Table 6. DNA and protein sequences for the enzymes are provided in SEQ IDs 1050-1071 (see Table 1).
Turning to B1, the “Mogroside IA” value is on record as 2700609 and the “Mogroside IE” value was “not detected”.

As to B2, the “Mogroside IA” value was 76330 and the “Mogroside IE” value is on record as 13290.

In the case of B3, the “Mogroside IA” value came to 562100 and the “Mogroside IE” value was “not detected”.

As to B4, the “Mogroside IA” value was determined as 1764000 and the “Mogroside IE” value is on record as “not detected”.

Regarding B5, the “Mogroside IA” value came to 261900 and the “Mogroside IE” value stood at 104300.

In the case of B6, the “Mogroside IA” value worked out at 696200 and the “Mogroside IE” value is given as “not detected”.

Consider B7, for which the “Mogroside IA” value came to 1816000 and the “Mogroside IE” value is listed as “not detected”.

As to B8, the “Mogroside IA” value is listed as 1315000 and the “Mogroside IE” value was “not detected”.
